Assay: yeast display, Sf9 membrane polyspecificity reagent, FACS + sequencing; frameworks hold sequencing errors
Method in brief: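 A nanobody's polyreactivity label depends on the gate it was sorted from. Yeast display cells were stained with 10% biotinylated, detergent-solubilized Sf9 membrane reagent for 1 hour at 4 °C, enriched on streptavidin microbeads and sorted by FACS. The low and high (top ~1%) gates were set on anti-HA fluorescence for expression and streptavidin fluorescence for reagent binding.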

Sequence	polyreactivity (PSR sort gate)
QVQLVESGRGLVQAQGSLRLSCAASGRIFNYNAMGWYRQAPGNERELVAVISRRGGSTYYADSVKGRFTISRDYAKNTVYLQMNSLKPEDTAVYYCGADLPSYPYEYWGLGTQVTVSS	low polyreactivity
QVQLVESGRGLVQEGGSLRLSCAASGRIFSAYAMGWYRQAPVKERELVAAITWSGANTDYADSVKGRFTISRDNAKNNVYLQMNSLKPEDTAVYYCNASVGRDSAYDYLGQGTQVTVSS	low polyreactivity
QVQLVESGRGVVQAGGSLRLSRADSGIIFLDHAMGWYRQAPGKEWELVAGINGGGRTDYADSVQGRFTISRDNAKNTVYLQMNSLTPEDTAVYYCAAESSWYSPDVNFWGQGTQVTVSS	low polyreactivity
QVQLVESGVALVQAGGSLRLSCAASGSILYPYAMGWYRQAPGKERELVAAITKTDGSTYYADSVKWRFTISRDNAKNTVYLQMNSLTPEDTAVYCCNAKWTLRWYFPYWSEYDYWGQGTQVTVSS	low polyreactivity
QVQLVESGVCIVQAGGSLRLRCASSGSSLLNNAMGWYRQAPGKERELVAAITWSGGDTYYADSVKGRFTISRDNAKNTVYLQMNCLLQEDTAVYDCAADRYQWLTAYTDDLDHDYWGQGTQVTVSS	high polyreactivity
QVQLVESGVCLVQAGGSLRLSCAASGRIFYYYTMGWYRQAPGKERELVAAITSGGSTYYADSVKGSFTISRDNAKNTVYLQMNSLKPEDTAVYYCNAEFDDKYDYWGQGTQVTVSS	low polyreactivity
QVQLVESGVCLVQAGGSLRLSCAATGSIFEYNAMGWYRQAHGKERELVAAITRGGNTYYADSVKGLFTISRDNAKNTVYLQMNSLKPEDTAVYYCAAVEWYGYPYYYWGQGTQVTVSS	low polyreactivity
QVQLVESGVCLVQSGGSLRLICAASGRIITPYTMGWYRQAPGKERELVATITWSGGSTYYADSVKGRFTISRDNSKNTVYLQMNSLKPEDTAVYYCAARQIYVWAEYDYWGQGTQVTVSS	low polyreactivity
QVQLVESGVGIVQAGGSLRLSCAASGSTLVYYDMGWYRQAPGKERELVATITGTDSTYYADSVKGRFTISRDNAKNTVYLQMNSLKPEDTADCAADRAGSRPDYDYWGQGTQVTVSS	low polyreactivity
QVQLVESGVGLVESGGSLRLSCASSGSTFVYTAMCWYRQSPGKERELVAAISWSGGSTYYADSVKGRFTISRDNAKKTVYLQMNSQKPEDTAVYYCAADGNPPAAMDYRGQGTQVTVSS	low polyreactivity
QVQLVESGVGLVKAGGSLRLSCATSGLILYRYVMGWYRQAAGKERQLVAAISSSGGRTYYADSVKGRFTISRDNAKNTVYLQMNSLKPEDTAVYYCAKRRSDARRGYDYLGQGTQVTVSS	high polyreactivity
QVQLVESGVGLVLAGGSLRLSCAASGRTFWSYAMGWYRKAPGKERELVAAITWSGTSTDYAVSVKGRFTISRDNAKNRVYLLMKSLKPEDTAVYYCAAIVYGQYRSRYYYWGQGTEVTVSS	high polyreactivity
QVQLVESGVGLVQAARSLRLSCAASGRTFGSYAMGWYRQAPGKEREFVAGISYGGGRTYYADSVKGRFTISRDTAKNTVYLQMNSLKPADTAVYYCAADGVYRYNYPYLYTYDYWGQGTQVTVSS	low polyreactivity
QVQLVESGVGLVQAGGSHRLSCAASGRTLWYYAIGWYRQAPGKERELVASIRRRTGSTYYAESVKGRFTISRDNAKNTVYLQLNSLKPEDTAVYYCAAKGFLRNGYWGQGTQVTVSS	high polyreactivity
QVQLVESGVGLVQAGGSHRLSCAASGSIFGFYVMGWYRQAPGKERELVAAISRGGTRTYYADSVKGRFTISRDNAKNTVYLQMNSLKPEDTAVYYCAKYDGGSGTGPRSDYWGQGTQVTVSS	high polyreactivity
QVQLVESGVGLVQAGGSLLLICAASGRIFGANAMGLYRQAPGKERELVAAISRTGGSTNYADSVKGRFTISRDNAINTVFLQMYSLKPEDTAVYYCNAVYRYAHPMEYWGQGTQVTVSS	high polyreactivity
QVQLVESGVGLVQAGGSLLLSCAASGFISGSYAIGWYRQAPGKERELVADISRRGSSTYYADSVKGRFTISRDNAKNTVYLQMNSLKPEDTAVYVCNAVPYGNGAMDYWGQGTQVTVSS	high polyreactivity
QVQLVESGVGLVQAGGSLRLICAASGSTFQPNVMGWYRQAPGKERELDAAIRGSSGNTYYADSVKGRFTISRDHAKNTVYLQMNSLKPEDTAVYYCAALFLFKTSSPYRYYYWGQGTQVTVSS	high polyreactivity
QVQLVESGVGLVQAGGSLRLICAASGSTFYRNAMGWYRHAPGKERELVAGISRRGGSTYYADSVKGRFTISRDIAKNRVYLQMNSLIPEDTAVYYCNADYPGIPHNDYWGQGTQVNVSS	low polyreactivity
QVQLVESGVGLVQAGGSLRLSCAASGFIFPYYTMGWFRPAPGKERELVAAINVSGGSTYYADSVKGRFTISRDNAKNTVYVQMNSLKPEDTAVYYCAAVGGRFVGRSTMDYWGQGTQVTVSS	low polyreactivity
QVQLVESGVGLVQAGGSLRLSCAASGFIFYNYAMGWYRQAPGKERELVASITSGGGTNYADSVKGRFTISRDNAKNTVYLQMNSLKPEDTAVYYCAVRGRGRFNGYGYWGQGTQVTVSS	high polyreactivity
QVQLVESGVGLVQAGGSLRLSCAASGFTFRRYAMGWYRQAPGKERELVAAISIRGGRTYYADSVKGRFTISRDNAKNTVYLQMNSLKPEDTAVYYCAADGVYALDVESDSWGQGTQVTVSS	high polyreactivity

Sequence	polyreactivity (PSR sort gate)
QVQLVESGVGLVQAGGSLRLSCAASGFTFSYYAMGWYRKAPGKERELVAGITTGGGTNYADSVKGRFTISRDNAKNTVYLQMNSLKPEDPAVYYCNAVGAHWVSYSSPVRFDYWGQGTQVTVSS	low polyreactivity
QVQLVESGVGLVQAGGSLRLSCAASGFTFYSNAMGWYRQAPGKERELVAAITGRVGRTYYADSVKGRFTISRDNAKNTVYLLMNSLKPEDTAVYYCAAVYQVSTWGGRYYFRQGYDYWGQGTQVTVSS	high polyreactivity
QVQLVESGVGLVQAGGSLRLSCAASGIIFFFYAMGWYIQAPGKERELVAAISDDGVSTDYADSVKGRFTISRDNAKNTVYLQMNSLKPEDTAVYYCSAKNERVYPWFSFGYWGQGTQVTVSS	low polyreactivity
QVQLVESGVGLVQAGGSLRLSCAASGIIFLENAMGWYRQAPGKERELVAGISSGGNTNYADSVKGRFTISRDNAKNTDYLQMNSLKPEDTAVYYCNTDWYLPRYVLLGYFSGTEDSWGQGTQVTVSS	low polyreactivity
QVQLVESGVGLVQAGGSLRLSCAASGITFREYAMGWYRQAPGKERELVAAIRYSGGSTYYADSVKGRFTISRDNAMNTVYLQMNSLKPEDTAVYYCAADPRRTLSPQLSDYWGLGTQVTVSS	high polyreactivity
QVQLVESGVGLVQAGGSLRLSCAASGNIFGYYAMGWYRQAPGKERELVAAISRSGTRTYYADSVKGRFTISRDNAKNTVYLQMNSLKPEDTAVYYCNAAKSPARFQVNNFDYWGQGTQVTVSS	high polyreactivity
QVQLVESGVGLVQAGGSLRLSCAASGNIFTTYAMGWYRQAPGKERELVAAISRTGGRTSYADSVKGRFTISRDNAKNTVYLQMNSLKPEDTAVYYCAAVPTVRPSAPRARILSDYWGQGTQVTVSS	high polyreactivity
QVQLVESGVGLVQAGGSLRLSCAASGNTFLPYAMGWYRQAPGKERELVAANSWSGGSTYYADSVKGRFTISRDNAKNTVYLQMNSLKPEETAVYYSARRRIGTPAYYYWGHGTQVTVSS	high polyreactivity
QVQLVESGVGLVQAGGSLRLSCAASGRIFCYYAMGWYRQAPGKERELVATINGGGSTNYADSVKGRFTISRDNAKNTVYLQMNSLKPEDTAVYYCAAAQWAYWLLYKYWGQVTQVTVSS	low polyreactivity
QVQLVESGVGLVQAGGSLRLSCAASGRTFAQYAMGCYRQAPGKERELVAVISRCTGRTYYADSVKGRFTISRDNAKNTVYLQMNSLKPEDTALYYCNTSPKLTYALLYVYWGQGTQVNVSS	high polyreactivity
QVQLVESGVGLVQAGGSLRLSCAASGSIFEDYVMGWYRQAPGKERELVADITSGGTTYYADSVKGRFTISRDNAKNTVYLQMNSLKPEDTAVYYCAAEVDWVPFLLDYWGQGTQVTVSS	low polyreactivity
QVQLVESGVGLVQAGGSLRLSCAASGSIFEVYAMGWYRQAPGKEREFVATLSGSGGSTYYADSVKGRFTISRDNAKNTVYLQMNSLKPEDTAVYYCAASIAWYSSFVITCYYWGQGTQVTVSS	low polyreactivity
QVQLVESGVGLVQAGGSLRLSCAASGSIFVYYAMGWYRPAPGKERELVAAINFRGGNTYYADSVKGRFTISRDNAKNTVYLQMNRLKPEDTAVYYCAADYRWKWIGGARYDYWGQGTQVTVSS	low polyreactivity
QVQLVESGVGLVQAGGSLRLSCAASGSIITPYAMGWYRQAPGKERELVAAITSGGSTYADSVKGRFTISRDNAKNTVYLQMNSLKPEDTAVYYCAADRSYVYAGADMYYWGQGTQVTVSS	low polyreactivity
QVQLVESGVGLVQAGGSLRLSCAASGSNFNTYTMGRYRQAPGKERELVAAITWSGGRTYYADSVKGRFTISRDNAKNTVYLQMNSLKPEDTAGYYCAADWGEDYTRDDYWGQGTQVTVSS	low polyreactivity
QVQLVESGVGLVQAGGSLRLSCAASGSTFGGYAMGWYRQAPGKERELVAAITSRSGRTYYADSVKGRFTISRDIAKNTVYLQMNSLKPEDTAVYYCATPQYPGRDYWGQGTQVTVSS	high polyreactivity
QVQLVESGVGLVQAGGSLRLSCAASGSTFSIYALGWYRQAPGKERELVAAISWDSDDTYYADSVNGRFTISRDNAKNTVYLQMNSLKPEDTAVYYCAADRLDRYYYWGQGTQVTVSS	low polyreactivity
QVQLVESGVGLVQAGGSLRLSCAASGSTFSYYAMGWYRQAPGKERELVAAITRSGGRTYYADSVKGRFTISRDNAKNTVYLQMNSLKPEDTAVYYCAALSVGTRRDYWGQGTQVTVSS	low polyreactivity
QVQLVESGVGLVQAGGSLRLSCAASGSTFYAYAMGWNRQAPGKERELVAAISSDGTNYADSVKGRFTISRDNAKNTVYLQMNSLKPDDTAVYYCAADLLLYSSQDNDYWGQGTQVTVSS	low polyreactivity
QVQLVESGVGLVQAGGSLRLSCAASGSTFYRNTMGWYRQAPGKERELVAAINTSGASTYYADSVKGRFTISRDNAKNTVYLQMNSLKPEDTAVYYCAALYRGYTGGYKFYYWGQGTQVTVSS	high polyreactivity
QVQLVESGVGLVQAGGSLRLSCAASGSTLVSYAKGWYIQAPGKERELVASISSGDSTYADSVKGRFTISRDNAKNTVYLQMNSLKPEDTAVYYCNVGNEGSYGFPVTYEYWGQGTQVTVSS	low polyreactivity
